In US20170369592A1, “NOVEL ANTI-FIBROBLAST ACTIVATION PROTEIN (FAP) ANTIBODIES AND USES DERIVED THEREOF” (Mabimmune Diagnostics AG, priority 2015, published 2017):
Values belong to the molecule of their own block, whether it stands above or below them.

Legend:
[1] = cyclization; cited from earlier work
[2] = tested on: tumor growth in NSCLC and MCRC; conditions: mouse models; cited from earlier work
[3] = pH 7.8; cited from earlier work
[4] = target: directly coated FAP peptides mixture (cFAP); experiment: Direct ELISA, mixture of FAP-specific peptides directly coated; assay type: binding, human; conditions: non-linear regression
Experimental: ELISA assays were performed with varying antibody concentrations to validate the binding of the exemplary antibodies of the present invention to FAP and to be able to determine their half maximal effective concentration (EC50). For the exemplary recombinant human NI-206.82C2, NI-206.59B4, NI-206.22F7, NI-206.27E8, NI-206.12G4 and NI-206.17A6 antibodies, 96-well microplates (Costar, Corning, USA) were coated with FAP, with a mixture of the 3 peptides or with BSA (Sigma-Aldrich, Buchs, Switzerland) diluted to a concentration of 5 μg/ml in carbonate ELISA coating buffer (15 mM Na2CO3, 35 mM NaHCO3, pH 9.4) for the direct ELISA. For the capture ELISA, the microplates were coated with mouse anti-His monoclonal antibody (Clontech) diluted to a concentration of 3 μg/ml in PBS, the plates were then blocked, FAP or BSA were diluted to a concentration of 2 μg/ml in PBS and added to the plates to be captured. The binding efficiency of the antibodies was then tested. The exemplary NI-206.82C2 antibody specifically and strongly binds to the captured FAP and less efficiently to the directly coated FAP. The exemplary NI-206.59B4 antibody specifically, strongly and similarly binds to the captured FAP and to the directly coated FAP.
The EC50 values were estimated by a non-linear regression using GraphPad Prism (San Diego, USA) software. […] The binding of NI-206.12G4 towards sFAP was not tested.

[5] = target: T1, recombinant human Fibroblast Activation Protein (FAP) (human, UniProt Q12884 26-760); experiment: ELISA, tagged rhFAP captured on the plate with an anti-tag antibody, HRP-labelled NI-206.82C2, TMB, OD 450 nm; axis unit as printed (pM) [continued) B]
T1 construct: Bought recombinant his-tagged protein; Captured (sFAP) and directly coated (FAP) are two assay formats of this one molecule; also called rFAP; rhuFAP; not shown: N-terminus 6x histidine tag
T1 sequence (looked up): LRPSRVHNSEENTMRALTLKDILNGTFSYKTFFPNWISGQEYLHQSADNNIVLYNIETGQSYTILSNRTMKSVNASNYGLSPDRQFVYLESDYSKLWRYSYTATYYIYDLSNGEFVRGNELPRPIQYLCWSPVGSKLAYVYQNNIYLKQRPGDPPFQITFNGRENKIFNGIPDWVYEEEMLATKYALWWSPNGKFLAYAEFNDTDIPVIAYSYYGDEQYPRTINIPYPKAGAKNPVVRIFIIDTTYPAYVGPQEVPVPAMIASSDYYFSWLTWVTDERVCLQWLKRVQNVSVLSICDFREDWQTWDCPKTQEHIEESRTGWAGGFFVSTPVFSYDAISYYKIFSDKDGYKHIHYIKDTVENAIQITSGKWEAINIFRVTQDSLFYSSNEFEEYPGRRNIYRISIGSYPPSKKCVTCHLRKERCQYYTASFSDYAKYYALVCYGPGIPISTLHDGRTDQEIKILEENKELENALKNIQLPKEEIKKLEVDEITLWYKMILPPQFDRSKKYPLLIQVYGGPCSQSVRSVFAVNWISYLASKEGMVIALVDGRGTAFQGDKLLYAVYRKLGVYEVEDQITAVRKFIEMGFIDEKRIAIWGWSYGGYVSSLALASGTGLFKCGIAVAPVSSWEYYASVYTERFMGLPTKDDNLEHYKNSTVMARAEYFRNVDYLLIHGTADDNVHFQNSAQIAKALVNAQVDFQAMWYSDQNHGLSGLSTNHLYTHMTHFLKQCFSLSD
Excerpt: Active recombinant human enzymes evaluated in this assay include: Fibroblast Activation Protein (FAP; Sino Biologicals, 10464-H07H), Dipeptidyl Peptidase IV (DPPIV, BPS Bioscience 80040), Dipeptidyl Peptidase 8 (DPP8, BPS Bioscience 80080), Dipeptidyl Peptidase 9 (DPP9, BPS Bioscience 80080), and Prolyl Oligopeptidase/Prolyl Endopeptidase (POP/PREP, BPS Bioscience 80105). Each recombinant peptidase was expressed with a purification tag, and attached to the 96 well ELISA plate using either a mouse anti-Histidine antibody (CloneTech), or a mouse anti-Glutathione S-transferase (GST, Sino Biologicals, 111213-MM02) tag antibody. […] H-Gly-Pro-AMC (ATT Bioquest, 13450) was used to validate the presence and activity of DPP4, DPP9, and DPP8. Z-Gly-Pro-AMC (BaChem, 11145) was used to evaluate the activity of FAP and POP/PREP. […] Following a washing step, bound antibody was detected using 3,3′,5,5′-Tetramethylbenzidine (TMB) substrate.

[6] = target: T2, recombinant human Dipeptidyl Peptidase IV (DPPIV) (human, UniProt P27487 29-766, limits assumed); experiment: ELISA, recombinant human CD26 on the plate, NI-206.82C2 detected with HRP goat anti-human antibody, OD450
T2 construct: Bought; also called rhDPPIV; DPP4

[7] = target: T3, active recombinant murine FAP (mouse, UniProt P97321 26-761); experiment: cell-based or functional assay
T3 sequence (looked up): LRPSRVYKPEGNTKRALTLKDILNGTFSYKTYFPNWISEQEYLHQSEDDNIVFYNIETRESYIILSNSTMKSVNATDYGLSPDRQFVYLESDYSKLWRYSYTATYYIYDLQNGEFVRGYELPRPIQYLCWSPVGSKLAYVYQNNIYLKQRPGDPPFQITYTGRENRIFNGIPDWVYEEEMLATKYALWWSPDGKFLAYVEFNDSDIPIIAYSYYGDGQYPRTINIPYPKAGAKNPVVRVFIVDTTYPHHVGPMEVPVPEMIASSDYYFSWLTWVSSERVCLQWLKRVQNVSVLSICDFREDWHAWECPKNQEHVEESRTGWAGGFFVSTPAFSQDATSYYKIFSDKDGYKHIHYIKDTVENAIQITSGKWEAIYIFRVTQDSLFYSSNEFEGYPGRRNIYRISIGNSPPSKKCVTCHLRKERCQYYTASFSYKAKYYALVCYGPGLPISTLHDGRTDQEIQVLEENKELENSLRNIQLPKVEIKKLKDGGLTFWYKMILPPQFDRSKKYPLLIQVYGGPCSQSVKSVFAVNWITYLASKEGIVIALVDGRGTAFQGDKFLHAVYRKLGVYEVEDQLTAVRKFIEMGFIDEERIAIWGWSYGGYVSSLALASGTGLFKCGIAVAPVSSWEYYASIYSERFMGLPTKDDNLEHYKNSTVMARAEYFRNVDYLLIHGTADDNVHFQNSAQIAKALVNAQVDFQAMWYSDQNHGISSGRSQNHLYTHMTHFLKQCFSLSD

[8] = target: T1, recombinant human Fibroblast Activation …; experiment: cell-based or functional assay
[9] = target: T1, recombinant human Fibroblast Activation …; experiment: cell-based or functional assay; remark: listed apart in the source

T2 sequence (P27487 29-766 limits assumed): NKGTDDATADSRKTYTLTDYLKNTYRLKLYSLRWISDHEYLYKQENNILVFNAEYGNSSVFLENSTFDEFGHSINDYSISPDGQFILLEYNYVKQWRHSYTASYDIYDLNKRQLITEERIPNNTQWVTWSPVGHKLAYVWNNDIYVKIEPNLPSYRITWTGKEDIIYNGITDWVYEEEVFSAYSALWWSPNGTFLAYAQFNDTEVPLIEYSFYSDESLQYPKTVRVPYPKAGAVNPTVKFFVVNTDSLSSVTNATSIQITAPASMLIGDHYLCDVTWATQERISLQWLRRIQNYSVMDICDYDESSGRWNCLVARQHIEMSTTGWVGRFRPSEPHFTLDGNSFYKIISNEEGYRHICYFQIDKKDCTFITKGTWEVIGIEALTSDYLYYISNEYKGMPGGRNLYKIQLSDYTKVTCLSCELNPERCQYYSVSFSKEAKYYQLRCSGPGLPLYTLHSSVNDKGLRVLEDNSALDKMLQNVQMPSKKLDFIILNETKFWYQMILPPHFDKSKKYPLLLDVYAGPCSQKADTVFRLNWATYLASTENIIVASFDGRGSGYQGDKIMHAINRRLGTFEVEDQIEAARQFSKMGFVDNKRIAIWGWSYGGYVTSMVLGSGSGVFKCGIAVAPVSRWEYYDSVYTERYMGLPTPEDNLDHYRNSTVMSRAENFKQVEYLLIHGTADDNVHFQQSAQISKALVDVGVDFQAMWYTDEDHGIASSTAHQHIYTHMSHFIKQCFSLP

Molecule: N[C@@H](CCC(=O)O)C(=O)N1CCC[C@H]1B(O)O [PT-630]
in-vivo stability [1]: poor in-vivo stability | tumor growth [2]: abrogate tumor growth

Molecule: CC(C)[C@H](N)C(=O)N1CCC[C@H]1B(O)O [Talabostat, Val-boroPro]
stability of inhibitory activity in aqueous media [3]: rapidly loses inhibitory activity

B2: NI-206.12G4: recombinant human-derived monoclonal anti-FAP antibody, variable regions in FIG. 1 (antibody, V domains shown)
VH: EVQLVESGGGLVKPGGSLRLSCAASGFTFSDYYMSWIRQAPGKGLEWISYISSGSSYTNYADSVKGRFTISRDNAKKSVYLEVNGLTVEDTAVYYCARVRYGDREMATIGGFDFWGQGTLVTVSS
VL: SYELTQPPSVSVSPGQTARITCSGDALPKQYAYWYQQSPGQAPVLVIYKDSERPSGIPERFSGSSSGTTVTLTISGVQAEDEADYYCQSADSGGTSRIFGGGTKLTVL
EC50, binding to directly coated FAP peptides mixture (cFAP) [4]: did not show any binding

Results, then the molecule that gave them:

EC50, binding to directly coated FAP peptides mixture (cFAP) [4]: did not show any binding
B1: NI-206.27E8: recombinant human-derived monoclonal anti-FAP antibody, variable regions in FIG. 1 (antibody, V domains shown)
VH: EVQLVESGGGLVEPGGSLRLSCAASGFTFSDAWMNWVRQAPGKGLEWVGRIKTKSDGGTTDYAAPVRGRFSISRDDSKNTLFLEMNSLKTEDTAIYYCFITVIVVSSESPLDHWGQGTLVTVSS
VL: SYELTQPPSVSVSPGQTARITCSGDELPKQYAYWYQQKPGQAPVLVIYKDRQRPSGIPERFSGSSSGTTVTLTISGVQAEDEADYYCQSAYSINTYVIFGGGTKLTVL

EC50, binding to directly coated FAP peptides mixture (cFAP) [4]: did not show any binding
B3: NI-206.59B4: recombinant human-derived monoclonal anti-FAP antibody, variable regions in FIG. 1 (antibody, V domains shown)
VH: QVQLVQSGAEVKKPGASVKVSCKTSGYTFTDYYIHWVRQAPGQGLEWMGWINPNRGGTNYAQKFQGRVTMTRDTSIATAYMELSRLRSDDTAVYYCATASLKIAAVGTFDCWGQGTLVTVSS
VL: SYELTQPPSVSVSPGQTARITCSGDALSKQYAFWFQQKPGQAPILVIYQDTKRPSGIPGRFSGSSSGTTVTLTISGAQADDEADYYCQSADSSGTYVFGTGTKVTVL

EC50, binding to directly coated FAP peptides mixture (cFAP) [4]: did not show any binding
B4: NI-206.17A6: recombinant human-derived monoclonal anti-FAP antibody, variable regions in FIG. 1 (antibody, V domains shown)
VH: QVQLQESGPGLVRSTETLSLTCLVSGDSINSHYWSWLRQSPGRGLEWIGYIYYTGPTNYNPSLKSRVSISLGTSKDQFSLKLSSVTAADTARYYCARNKVFWRGSDFYYYMDVWGKGTTVTVSS
VL: EIVLTQSPGTLSLSLGERATLSCRASQSLANNYLAWYQQKPGQAPRLLMYDASTRATGIPDRFSGSGSGTDFTLTISRLEPEDFAVYYCQQFVTSHHMYIFGQGTKVEIK

EC50 (read off the curve) [5]: 0.04 to 0.05 nM | binding result [6]: no binding (tested: 20 nM) | IC50 (read off the curve) [continued) B] [7]: ~60 nM | IC50, inhibition of rhFAP gelatinase activity (DQ-gelatin cleavage) [8]: 7.7 nM | IC50 (read off the curve) [9]: ~10 nM
B5: NI-206.82C2 (antibody, V domains shown)
VH: QVQLQQSGPGLVKPSQTLSLTCAISGDSVSSNSVTWNWIRQSPSRGLEWLGRTYYRSKWYNDYAVSVKGRITINPDTSKNQFYLQLKSVTPEDAAVYYCARDSSILYGDYWGQGTLVTVSS
VL: QAVLTQPSSLSASPGASASLTCTLPSGINVGTYRIFWFQQKPGSPPQYLLSYKSDSDNHQGSGVPSRFSGSKDASANAGILLISGLQSEDEADYYCMIWHSSAWVFGGGTKLTVL
notes: Labelled with HRP or Cy5 in some assays; also called HRP-labelled 82C2
